Laboratory results published in PMC13036776, “Structural and Kinetic Basis for the Rational Design of Next-Generation β‑Lactamase Inhibitors” (Journal of Medicinal Chemistry, 2026).

System: O=C(Cc1cccs1)N[C@@H]1C(=O)N2C(C(=O)O)=C(/C=C/c3ccc([N+](=O)[O-])cc3[N+](=O)[O-])CS[C@H]12
Assay: purified protein
Type: biochemical, Pseudomonas aeruginosa
Settings: active site, catalytic S64 acylation (acyl-enzyme), pH 7.2

| Substance | Km (general base K67, R349 anchor) [µM] | Vmax (general base K67, R349 anchor) [µM/min] | kcat (general base K67, R349 anchor) [s⁻¹] | kcat/Km (general base K67, R349 anchor) [M⁻¹ s⁻¹] | Km (general base K67) [µM] | Vmax (general base K67) [µM/min] | kcat (general base K67) [s⁻¹] | kcat/Km (general base K67) [M⁻¹ s⁻¹] |
| --- | --- | --- | --- | --- | --- | --- | --- | --- |
| PDC-3 (Pseudomonas-derived cephalosporinase-3, class C β-lactamase AmpC) (Pseudomonas aeruginosa PAO1) | 28 ± 1 | 82.2 | 152 ± 15 | 5.4e+06 ± 500000 |  |  |  |  |
| PDC-3 (Pseudomonas-derived cephalosporinase-3, class C β-lactamase AmpC) (Pseudomonas aeruginosa PAO1; R376A/T105A) |  |  |  |  | 10.1 ± 1.5 | 55.8 | 85 ± 3 | 8.4e+06 ± 1.3e+06 |
